Experimental findings from publication doi:10.1101/2023.03.20.533423 (bioRxiv, 2023) are described below.

This assay addresses T1, M. tb ParB with C-terminal 6xHis-tag (M. tuberculosis, UniProt P9WIJ9 1-344).
T1 sequence: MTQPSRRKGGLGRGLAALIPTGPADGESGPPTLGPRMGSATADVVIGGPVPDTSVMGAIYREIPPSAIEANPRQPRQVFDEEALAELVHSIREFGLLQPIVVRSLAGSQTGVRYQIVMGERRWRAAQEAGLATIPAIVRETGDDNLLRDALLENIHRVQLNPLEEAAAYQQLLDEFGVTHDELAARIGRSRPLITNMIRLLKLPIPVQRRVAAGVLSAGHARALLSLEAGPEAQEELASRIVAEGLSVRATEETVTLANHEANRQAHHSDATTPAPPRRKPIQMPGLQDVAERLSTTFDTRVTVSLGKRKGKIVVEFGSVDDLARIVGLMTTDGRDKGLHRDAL
The assay is described as follows: pull-down.

B1: GST-Rv1708 (natural protein)
chain: MPAGLPGQASVAVRLSCDVPPDARHHEPRPGMTDHPDTGNGIGLTGRPPRAIPDPAPRSSHGPAKVIAMCNQKGGVGKTTSTINLGAALGEYGRRVLLVDMDPQGALSAGLGVPHYELDKTIHNVLVEPRVSIDDVLIHSRVKNMDLVPSNIDLSAAEIQLVNEVGREQTLARALYPVLDRYDYVLIDCQPSLGLLTVNGLACTDGVIIPTECEFFSLRGLALLTDTVDKVRDRLNPKLDISGILITRYDPRTVNSREVMARVVERFGDLVFDTVITRTVRFPETSVAGEPITTWAPKSAGALAYRALARELIDRFGM
Consider B1, for which the binding result is recorded as “binds”.
